Measurements: the DeepSol protein solubility set

Assay: soluble on expression in E. coli; label from the status in PepcDB or PDB records

Soluble on expression in E. coli, not soluble:
MGSDKIHHHHHHMNKKLLNKVMKKLASSNVVISPTVKSSSTSLSMQKKPETEQVQQKLEQYLLSRYHFRFNLLTEQTECCKKDADTPIYKVISQRTLNSLCLEARARHINCWDKDVSRFVNSEQMPDYHPLLSYMNTLPEWDGKDRVTPLAQRISTKDFWVNSFHRWMLGVTAQWSGRMDRCANAVAPMLVSSEQGRCKSTFCELLMPDSLKDYYTDSFELTGQAGCEQKLAFFGLINLDEYDRLSPQKLPLLKNLMQMKKLDFRKSHRSSYSHLPRMASFIGTSNRKALLTDPSGSRRYFFAEVKEKIDCSPLEHKQLFAQLKAELDEGKRYWFSAAEESELKLRNQAYYALPTEAEMILHCFRLPEKGEDFKLYSAVCLFNILLKRYPAAMRGITINKMGRIMNSLGAERMHTTTGNMYKLVALAG
MGSDKIHHHHHHMNKKPLVSVYIPTHNRAELLSNAVKSVINQTYKNIEIIICNDGSGDNTDDVVNKLQKEYKDIPFVYLKNDSPMGACFSRNRCIAAASGYYLTGLDDDDYFLPNRIESLIKVCNERKIDLVCSNLIFKDGNKLKRGKNNSGVITSIDMGYENLVGNQLLTRLSYFEDVGGFDTNFPAWQDYDLWYRIIMKFGPCIKTNEATYVMDVENDRKRISTSSKAHIGYRSFIEKHSETLSEEMKSSLFIRDLINRNKKIPLKTLLSSGRKVASFKHNMRLCFPVVNSIAAFVREIKK
MGSDKIHHHHHHMNKTVDMTVNTIYLVGGGKGGVGKSVVALALVDHLQRRGVNTVLVENDTSNPDVMRAVHEEIACASFDLDTAGGWIDMVNYCDGHRDAVVVVSTAARNQDGVTRYGATLGSTLDELGRRLVVFWVINRQRDSLELLRQFSETFPDATVHVVRNGYYGAPERFVLYQDSKLRKSIEAKGRSLDFPELADRVADDLRSHRLSVRKAVETLPIGQRAELLRWRACYDAMFSQVTDDA
MGSDKIHHHHHHMNLRQLEYFVTLSETLSFTKTAQKFFISQTAVTKQIKLLENTLDTKLFNRNKHYVELTPAGNVFLMEAKAILLRVEEATERVHLTTIGFVGLLRIGFIKGYEKTAFSDLIFQLYNKYPNISITFFRGTESELYEKVLNSELDIVFNSVKPKNIDKTLEMKLIDKYPLKVVVHPTHPLAARKSVRFEELRGETIFKYNDGQDIEVTLLMVSANMGIAVMPSYCVRYLSQSQNLMIIAVENNNFYVDIAAVWNKENNNPALLRVLQIIKEAEQ
MGSDKIHHHHHHMNLWTSTPPMLRQISVRAAMDILLHQGPTSRADLAKKTGLSKQTMSEVIRTLETAGWVRVKGIVSGKVGRSAVTYEVAPDAGFVIGMDIGATTIRVAIADIAGTIVHEVEKSAGEHGGEALLAHVSGVVEASLKKARVSRSKVLLAAVAMPGVIDPETGRLSLAPNLSEIGSLDVIKALQGIFRCDVIIENDVNAAVIGESWKGSGIGLDSVAFVSLGTGIGLGVLFNGKLMRGAKGAAGEIGYLPFGADPYNSESLERGALECAIGARGILERYGNPGDGGMTVRDILEAAEKGDAKALATVQETARLAALLVVSVHAMLDPGKIILGGNVGRNPLMVRMVKEALATSTRSSISLEASTLASRATLVGAVAIALNQLHNALFSPQDLPSEMRLPA
MGSDKIHHHHHHMNLYEKLAEDIETSIRQGVYRHGERLPSVRQISQQHRISVTTAIRAYLLLESRGLVTSRPQSGYFVNRRDESERKALELRPSKPIPISSPVDVSRLVLSTLRSIGVDDAVPLGSPYPDPSLFPFERINRYAYDAGRGKAQWGVTDALPPGNAKLVRQIARRYLENGMAVDPNEIIITVGATEAINLCLQAVAKPGDVIAVESPTFYAMLHAIERMGMKAIEVSTHPEHGIDIEALAAIVESQPIAACMVMPNFQNPLGFLMPDERKRELVELLTKRNIPVIENGVYNELHFDSPHPSTLKSFDTKGLVLHCSSFSKSLTSAYRIGWALPGRYRDQVEKLKFLNTLTSPSIPQLAIAEFLERDGFEHHLRKVRKAYAQQANLMKAIVSRFFPEGTRMSNPAGGYVLWVELPPRVDSMRLYKLALDQGITIGPGYMFSVSETTYRNFIRLNYSSPWSGEIEQAVITVGKLVSMCAS
MGSDKIHHHHHHMNNSIITDDEVREFYLNCSSQTIIESLLSLHESLRLYSQNHEILLNRMFKKLDETNADSNISHIFMPVVSKDFSGIKILVNNNNKNFQGVINVIEPETGKLIGCFEAKQITAIRTALASCIGLYKQLSCSHDKLFRFENGTCYLTCFGTGLQAFWHIYIAIKLIMSGIVGESLKLVEINILYHNNMMSLDRLKSLKNLFGSNIKIELNQYQINDISSEGNGAVSNSDIIFGCLPTLEPNLFLRQLLNSKASVEQKHTYISLIGSYKPVMHECDKELIDKFKSDNESACILVDSREHTLLESGELIDSNIAPHNLIEIGELDTLKNTVLNLNEKGCKRTITLCKIVGLAVMDVALAKEFLSLRTKNTENKE
MGSDKIHHHHHHMNPKKLKQLKKRVKKQAGAPYIQQLMKYRDLFKDDPQILVLINNVLESDRLLAAGLAPQQLPVLEIPDDFQDHLFERINQQYAMGDPAGDAAWNQLSAALPKVDQLLRNFRDYIEDQYGMWAYISAPFLKDLADFTGSAPVLEVMAGNGYISKGLKRLHPGQPIYTTDSKDWTHETGNQTGRHPVTTIEALDAVSAFNKYAATIKYVIMAWSPDKLTIDWDLLQAMRQSPYDIPLIVIGEKYGATGSKQFWDHANYQDNEAVTKLNAHFRPFDLIHDHVYVVR
MGSDKIHHHHHHMNQEDDAKLAYLMAVNAIQMTKARYCRFVDTKQWDRLRTLFTADCRFEGLGSAPDRADLDIFIQGISRRLAHVVSVHHCHMGEIELVGADEAKVIWAMEDHLEWQDSGEVVEAPGNRGFRGYGHYEECYVRQGDTWKISLLRLTRLGIHPIPDAQPRLGTGRLGANPDWLPSDRRLR
MGSDKIHHHHHHMNQEQNDIAIRVSNLSKCYHIYDTPRDRLKQFILPRLHHLTGQTPRQYFREFWALRDVSFEVKKGETIGIIGRNGSGKSTLLQMICGTLNPTSGSITTYGRIAALLELGSGFNPEFTGRENVYMNASVLGLSQEETDARFDDIAAFADIGEFIEQPVKTYSSGMMVRLGFAVQAQVKPDILIVDEALAVGDAKFQAKCFDRLQQLKDGGTSILLVTHSSEQIVTHCSEAILLDGGDVIEHGEPRYVVNHYMDLLFGKERKSYSASAFSTESNSVEPTQDDNLSLNFIDDVFSSHANYNEHEYRWGDGTATILDFYLLTDNEPYPSVITSGQSVVLGVAVRFYEDLVRPILGITIKTKEGVTVYGVNSETLETDEIKVLGSKGTTALIKAEFICRLAPGDYFISLGLATRKGEEIVPHDRRYDAIYLQIAPVTKFFGLVDLGLKLSAQNTSL
MGSDKIHHHHHHMNQHIKGKHLSFEERVIIQLRLKDGYSLRAIARELNCSPSTISYEVKRGTVELYGKVKRYKATQGHDAYQAHRKNCGRKSDFLRKTQFMRYVHKHFFKDGWSLDVCSNRATAVGAFSSRDVVCTKTLYNYVDQGLLDIHNYDLPEKLKRNTKLHRIRKNKKKLGRSIEERPKEINKRNEFGHWECDLVLGHKCTDDEVLLALSERMSREFLILRIPDKTSVSVMQAFKELQRQYSEHWNDIFKTITTDNGSEFADLSNLEKASNTLVYYAHPYTSCDKGTVERHNGLIRRFIPKEEAIANYSLQDIINIETWCNSLPRKILAYHTPDEIFERELDLIYQAA
MGSDKIHHHHHHMNQMQQWKPDFLGEGYQNLTIELGDDPDNETDVVTTVVRYNPDNHADESFAARPALLWVHGMTDYFFHTEFAEFFHNAGFAVYGIDLRKCGRSYRPGQQWHYTSDLAHYFPDLTAAAEVISSTHPELVPVAHSTGGLIVPLWMSQMRTSNPAAIEKIPALVLNSPWLDMMYPPLFIKLITPMVRVLGKRSPTTIIPGGGLGAYGKSIHKNFYGEWDFDTTIKPVEGHKKSIGWLRAVMAGQAEIHHDHVNVGVDVLTLCSNKSWLKSEYTEDTNTSDAVLDVKHIQKWAPHLSSPSSRVDVEIIDNARHDIFLSRKPARDHASEVLNNWLQSKLSSLKPSQ
MGSDKIHHHHHHMNRLVSRSTLLNASRCFSRTAEASAKQTCLIETHKKHGGKLVEFAGYDMPTQYADFSIKESTIHTRKHVSLFDVSHMLQTYITGKDRVAFIESLTTADVQGLQENSGTLSVFTNEKGGIKDDLIIMKTDKDFLFLVTNAGCIEKDLPYLQENAAAWRSKGKDVKIETLDNRGLVAVQGPEMAKVLQEGTDIDLSKLTFMKTTVGKVFGIDGCRVTRCGYTGEDGVEISVDPTKAEQLVERLLASQAGSVKLAGLGARDALRLEAGLCLYGSDIEENTTPIEAGLAFVVAKRRRETLDFPGAEHIVKQLKEKSWPKRRVGLLAPAGRCPRSHLPLIDPLDKCSIGFVTSGCPSPTLGKNIAIAYVDKSHSKIGTKFVVDFGAKQAPVEVVKMPFVPTNYFTGK
MGSDKIHHHHHHMNRNNFSHEIIEPIDNLDVNFKLFDDSGSYVANHWHNSLEIIYITSGDLQINMEGYTYNLKANECMFINSGIIHSTRCIYQNTSILLQVPLSFLNKYIPDFKNCYFDFKVNANDNNYKKNSSKVKLILENMREIKLSSPPAANLLFTSLLFELLFELYTNFKISVGNKNMKKTVLDLSKFEPVLEYTKINYKMPISINKIAKVAHLQPEYFCRKFKQYMGQTYLEYLNDVRISHIYKDLINTNDTLCSILEAHGFTNTKLFYRIFKEKFKCTPKHIRKKST
MGSDKIHHHHHHMNSELEINLRKLGFSVYEAKVYLTLLNLCNSTMKELSENAEIPYQKVYEVVKSLEDKGLVRVIEGRPKKVKLIDPSISLKVYRDKIVSELDYAIGNVISYWSEKGKGEADRSLHIKGKTIVMRMIRELVDKSNKIKVVWDILPEWLIKILKKYKGNLTVITSSNNLSLNAEVKYVKNIKSKFIIFDDSVLVTFNDQDEIVVDSCRGCVLQAEEHFDLLTYKSE
MGSDKIHHHHHHMNSGIYSALTGNVAAMKRLDVLSNNLANVNTPGFKKDRMTFESMLQTVGAQPRPGGGTDAPVFAETTFFTDYSPGSVKQTGNPFDLAIDGDGFFAVTTADGQRAYTRQGNFRLDSTGRLVTADGAQVAGGVVIAGGKVDINGKGEVLVDGSQVGRLEVVDFPKPYALQKLGGGLFVPADPQATPNPVTGEKVMQGAIEESNVNTVQEMVQLIETNRYFEMCSKVVKAYDDLTGKAANEIGKI
MGSDKIHHHHHHMNSIPHLILGDIITPTQAGQSLLIKKGYVLINGDSIIEVGEQAHFNKEISYTVSNYPDHLILPGLIDTHSHLSQYAICGAGDLPLMDWLNTLVFPAETAFSSNLQRCQRHAELYMHACLGSGTTTINTMVTSSRQATEIVCDVAARLGIRAFIGLVLMDRNAPDNLLVDCAQAFKDLTVLKDRYHGKNNIHITVSPRFAVTCSAAMLRQAGEFARANKLILHTHLDKDEGFDELIQSLFSTAHDYFDVFESTQCIADKTVFAHGTLLSLHEMKRMGDYAKQVGISHCPSSNFSFAMGMAPVSFFKGLGIEVGLGSDSGGGDSLSLFDEMRSASFTNKALWRLDKKTALIDAKTWLYHATLGGAKLLGLEKQIGSIEAGKKADLIILDDRNNYPLAELSSLSQELALDELQYRLARVIARSCENKLVAVYIDGKKVYQ
MGSDKIHHHHHHMNSRTSFVSPDDRFSMVYFKMEHEGCWTGITKEHNIAIHTLKIIPLKDRNNIYGLFEIRAQGKKEFRDFLRRINREKTIHRVMAYSPSELRKNVYFIDLYEVYGGMIEGILNDYQSIFEYDVVRRGVEEKYAIIPSDRVLELKNSINGLGKIYQFKARCIKNFYYAFSPFLSYTPSEMQIIAEAVSRGYYSIPRHVGIRDLAEYFGMSKSTVQEYLRKAEQKTMNNLKLLKLMNEMKE
